In publication PMC8965161, “Suppression of ATG4B by copper inhibits autophagy and involves in Mallory body formation” (Redox Biology, 2022):

Assays:
[1] = target: ATG4B^C0-GFP (UniProt Q9Y4P1); assay: differential detergent fractionation and western blot under non-reduced condition, oligomer band quantified (self-oligomer formation in cells); set-up: reference not given here; settings: HEK-293T cells, read off a plot
[2] = target: the molecule itself; assay: non-reduced SDS-PAGE with Coomassie staining; ATG4B protein (4 ug) treated with designed concentrations of copper ions at 4 C for 30 min, stopped with 10 mM NEM; non-reduced condition

Row | Molecule | response ([1]; Insoluble fraction, 1 mM copper ions (CuCl2) for 6 h) | response ([1]; Insoluble fraction, no CuCl2) | response ([1]; Soluble fraction, 1 mM copper ions (CuCl2) for 6 h) | response ([1]; Soluble fraction, no CuCl2) | binding result [2]
1 | ATG4B-GFP (from UniProt Q9Y4P1) C0 (all 14 cysteines to serines) | 0.55 | 0.39 | 0.15 | 0.068 | 
2 | recombinant ATG4B protein without His-Tag (enzyme, human, UniProt Q9Y4P1 1-393, looked up, ATG4B, cysteine protease, human; source: recombinant, purified, without His-Tag) MDAATLTYDTLRFAEFEDFPETSEPVWILGRKYSIFTEKDEILSDVASRLWFTYRKNFPAIGGTGPTSDTGWGCMLRCGQMIFAQALVCRHLGRDWRWTQRKRQPDSYFSVLNAFIDRKDSYYSIHQIAQMGVGEGKSIGQWYGPNTVAQVLKKLAVFDTWSSLAVHIAMDNTVVMEEIRRLCRTSVPCAGATAFPADSDRHCNGFPAGAEVTNRPSPWRPLVLLIPLRLGLTDINEAYVETLKHCFMMPQSLGVIGGKPNSAHYFIGYVGEELIYLDPHTTQPAVEPTDGCFIPDESFHCQHPPCRMSIAELDPSIAVGFFCKTEDDFNDWCQQVKKLSLLGGALPMFELVELQPSHLACPDVLNLSLDSSDVERLERFFDSEDEDFEILSL |  |  |  |  | binds
